From publication PMC8659110, “Preliminary Study of New Gallium-68 Radiolabeled Peptide Targeting NRP-1 to Detect Brain Metastases by Positron Emission Tomography” (Molecules, 2021)
Primed or numbered codes have the meaning given here. Where no end group is shown, it is not given here. Cy5 = Cy5 fluorophore (fluorescent dye); NODAGA′ = chelator

What was measured:
[1] = target: T1, NRP-1 recombinant chimeric protein ( (recombinant human/rat NRP-1 …, UniProt O14786 22-856)); experiment: ELISA; competitive binding assay: NRP-1 recombinant chimeric protein coated on Maxisorp microplates; biotinylated VEGF-165 with heparin, with or without increasing concentrations of compounds; 2 h at room temperature; bound b-VEGF-165 detected with streptavidin-HRP, OD 450 nm; IC50 by one-site fit log-IC50; settings: both partners purified
T1 construct: 'Chimeric' probably means the supplier's Fc chimera; also called recombinant NRP-1 protein; the receptor; source: bought: Bio-techne
T1 sequence (looked up): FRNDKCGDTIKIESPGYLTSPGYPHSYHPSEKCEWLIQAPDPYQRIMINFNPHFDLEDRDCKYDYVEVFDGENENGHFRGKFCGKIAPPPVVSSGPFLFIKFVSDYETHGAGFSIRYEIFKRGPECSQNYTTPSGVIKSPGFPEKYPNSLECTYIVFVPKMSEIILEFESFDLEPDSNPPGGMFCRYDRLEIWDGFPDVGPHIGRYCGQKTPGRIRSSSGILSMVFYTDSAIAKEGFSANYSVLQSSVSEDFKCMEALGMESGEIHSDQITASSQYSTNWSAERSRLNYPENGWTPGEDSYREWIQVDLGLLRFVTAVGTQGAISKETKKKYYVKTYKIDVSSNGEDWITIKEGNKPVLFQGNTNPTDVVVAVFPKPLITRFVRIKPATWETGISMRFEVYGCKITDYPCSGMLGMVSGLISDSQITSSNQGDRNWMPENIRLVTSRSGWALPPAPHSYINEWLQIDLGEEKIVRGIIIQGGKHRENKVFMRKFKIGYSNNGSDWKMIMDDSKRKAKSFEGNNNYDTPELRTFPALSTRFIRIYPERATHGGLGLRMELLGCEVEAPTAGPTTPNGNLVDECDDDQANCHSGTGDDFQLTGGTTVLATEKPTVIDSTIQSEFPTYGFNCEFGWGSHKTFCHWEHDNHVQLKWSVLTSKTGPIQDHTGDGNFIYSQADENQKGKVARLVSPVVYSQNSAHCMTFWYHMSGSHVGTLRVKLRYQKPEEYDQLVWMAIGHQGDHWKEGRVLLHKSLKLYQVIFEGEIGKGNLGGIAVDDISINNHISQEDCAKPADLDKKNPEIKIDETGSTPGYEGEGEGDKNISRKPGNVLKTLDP

[2] = target: T2, recombinant rat NRP-1 protein (rat, UniProt Q9QWJ9 22-855); experiment: SPR; Biacore T200, 25 °C; rat NRP-1 covalently immobilised on CM5 chip (10,000 RU), IgG1 reference surface (4000 RU); PBS with 0.05% P20, pH 7.4; compounds 0.60-10 µM (scrambled peptides 10 and 30 µM, VEGF 12.5-400 nM) at 30 µL/min for 300 s; equilibrium response fitted to a 1:1 model; mean of two experiments; settings: both partners purified
T2 construct: neuropilin-1 (NRP-1), rat, recombinant; printed MW 119 kDa; also called neuropilin-1; source: bought: Bio-techne
T2 sequence (looked up): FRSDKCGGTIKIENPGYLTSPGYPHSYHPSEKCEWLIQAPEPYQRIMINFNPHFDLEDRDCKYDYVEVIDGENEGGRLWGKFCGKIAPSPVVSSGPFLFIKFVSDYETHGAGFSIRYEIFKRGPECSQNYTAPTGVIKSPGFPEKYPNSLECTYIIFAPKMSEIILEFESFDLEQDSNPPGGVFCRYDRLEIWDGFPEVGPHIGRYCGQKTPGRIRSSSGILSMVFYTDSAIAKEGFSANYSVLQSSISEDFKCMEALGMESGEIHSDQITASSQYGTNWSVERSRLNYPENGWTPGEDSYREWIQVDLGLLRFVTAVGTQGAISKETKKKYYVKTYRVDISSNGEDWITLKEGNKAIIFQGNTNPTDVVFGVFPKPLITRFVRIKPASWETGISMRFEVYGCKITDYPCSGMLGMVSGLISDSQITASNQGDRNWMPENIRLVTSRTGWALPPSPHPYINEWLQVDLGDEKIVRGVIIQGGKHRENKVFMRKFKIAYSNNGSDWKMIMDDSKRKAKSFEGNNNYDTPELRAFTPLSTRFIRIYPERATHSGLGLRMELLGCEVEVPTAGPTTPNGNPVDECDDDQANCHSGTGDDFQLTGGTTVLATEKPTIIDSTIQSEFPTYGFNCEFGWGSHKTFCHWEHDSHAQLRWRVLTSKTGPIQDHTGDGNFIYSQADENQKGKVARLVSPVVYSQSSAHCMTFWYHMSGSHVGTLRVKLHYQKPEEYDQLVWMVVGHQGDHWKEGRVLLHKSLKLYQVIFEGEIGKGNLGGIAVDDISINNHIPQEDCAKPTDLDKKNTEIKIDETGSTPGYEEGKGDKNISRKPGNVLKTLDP

Row | Binder | IC50 [1] [µM] | Kd [2] [µM]
1 | H-KRPKPD-OH [KRPKPD scramble peptide] | 300 | –
2 | K(Cy5)DKPPR (KDKPPR with Cy5 on the side chain of the first lysine; source: synthetic peptide (solid phase with Fmoc-Lys(Cy5)-OH, purified by preparative HPLC)) [K(Cy5)DKPPR] | – | 5
3 | KDKPPR (also called KDKPPR free peptide; KDKPPR alone; source: synthetic peptide (Fmoc/tBu solid phase on Fmoc-Arg(Pbf)-Wang resin, precipitated in cold diethyl ether)) [KDKPPR peptide] | – | 7
4 | {NODAGA′}-K(Cy5)DKPPR (also: NODAGA complexed with natGa, KDKPPR with ^natGa-NODAGA on the N-terminal amine and Cy5 on the side chain of the first lysine; source: synthetic peptide (Fmoc/tBu/Dde solid phase; complexed with ^natGa(NO3)3, purified by preparative HPLC)) [^natGa-NODAGA-K(Cy5)DKPPR] | – | 4
5 | {NODAGA′}-K(Cy5)RPKPD (also: NODAGA complexed with natGa, scramble peptide KRPKPD with ^natGa-NODAGA on the N-terminal amine and Cy5 on the side chain of the first lysine; also called ^natGa-NODAGA-K(Cy5)scramble; source: synthetic peptide (Fmoc/tBu/Dde solid phase; complexed with ^natGa, purified by preparative HPLC)) [^natGa-NODAGA-K(Cy5)RPKPD] | 177 | –
